The target in one assay is T1, GST-APPBP1 (UniProt Q13564 1-534, limits assumed).
T1 construct: Fractions of a Superdex 200 run of GST-APPBP1/UBA3 that held only GST-APPBP1; also called APPBP1 subunit alone; E1 regulatory subunit APPBP1; not shown: GST tag
T1 sequence (looked up): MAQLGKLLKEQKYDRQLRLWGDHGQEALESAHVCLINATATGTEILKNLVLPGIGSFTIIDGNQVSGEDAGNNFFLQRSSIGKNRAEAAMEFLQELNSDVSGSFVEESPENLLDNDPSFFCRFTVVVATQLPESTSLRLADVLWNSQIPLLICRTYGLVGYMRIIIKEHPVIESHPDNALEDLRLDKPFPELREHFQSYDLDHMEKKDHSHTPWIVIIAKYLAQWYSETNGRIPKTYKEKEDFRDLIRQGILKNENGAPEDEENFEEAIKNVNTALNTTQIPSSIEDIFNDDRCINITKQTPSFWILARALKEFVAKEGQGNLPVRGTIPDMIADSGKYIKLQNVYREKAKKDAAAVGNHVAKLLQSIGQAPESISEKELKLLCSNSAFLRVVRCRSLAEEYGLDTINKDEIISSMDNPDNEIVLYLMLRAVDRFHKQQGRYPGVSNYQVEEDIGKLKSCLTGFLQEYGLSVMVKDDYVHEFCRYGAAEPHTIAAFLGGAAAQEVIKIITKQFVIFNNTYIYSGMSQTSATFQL
As to the kind of experiment: biolayer interferometry, APPBP1 immobilized, ABD GlyRS 0.58-4.6 µM. Background: In BLI a coated tip is dipped into the sample, and binding shifts an interference pattern.

Assay [1] has as its target T2, E1 for neddylation, APPBP1/UBA3 heterodimer (UniProt Q13564 1-534; Q8TBC4 22-463).
T2 construct: GST-tagged or untagged preparations are mentioned; also called GST-APPBP1/UBA3; NAE; not shown: GST tag on APPBP1 (GST-APPBP1/UBA3)
T2 sequence (looked up) 1: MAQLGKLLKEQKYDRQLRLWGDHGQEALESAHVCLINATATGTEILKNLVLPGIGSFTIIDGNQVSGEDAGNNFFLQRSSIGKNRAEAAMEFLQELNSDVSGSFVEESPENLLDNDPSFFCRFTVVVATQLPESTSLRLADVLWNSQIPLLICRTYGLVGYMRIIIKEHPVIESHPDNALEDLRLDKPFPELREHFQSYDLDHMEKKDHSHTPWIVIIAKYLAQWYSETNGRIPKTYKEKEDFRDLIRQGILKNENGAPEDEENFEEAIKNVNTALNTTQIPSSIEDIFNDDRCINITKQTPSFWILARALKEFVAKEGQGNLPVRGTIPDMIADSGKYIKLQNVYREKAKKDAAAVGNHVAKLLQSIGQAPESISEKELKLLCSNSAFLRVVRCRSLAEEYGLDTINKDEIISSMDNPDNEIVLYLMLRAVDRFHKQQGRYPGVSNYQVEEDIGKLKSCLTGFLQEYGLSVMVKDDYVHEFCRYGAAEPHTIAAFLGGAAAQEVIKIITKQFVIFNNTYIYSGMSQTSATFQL
T2 sequence (looked up) 2: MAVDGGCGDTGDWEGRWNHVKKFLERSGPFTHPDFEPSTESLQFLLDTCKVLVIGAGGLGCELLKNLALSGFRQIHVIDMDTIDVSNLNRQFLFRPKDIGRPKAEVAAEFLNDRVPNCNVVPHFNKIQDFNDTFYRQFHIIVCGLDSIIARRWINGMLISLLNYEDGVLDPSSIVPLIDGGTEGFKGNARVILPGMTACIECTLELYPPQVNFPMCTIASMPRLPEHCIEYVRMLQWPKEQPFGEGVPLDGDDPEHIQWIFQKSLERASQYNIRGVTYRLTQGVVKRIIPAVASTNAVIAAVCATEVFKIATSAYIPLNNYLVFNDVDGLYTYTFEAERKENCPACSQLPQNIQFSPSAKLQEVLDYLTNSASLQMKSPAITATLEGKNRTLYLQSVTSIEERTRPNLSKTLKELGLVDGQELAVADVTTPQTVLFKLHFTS
As to the kind of experiment: biolayer interferometry, E1 (APPBP1/UBA3) immobilized, analyte 62.5-500 nM.

In assay [2] the target is T3, GlyRS in HEK293 cells (endogenous) (human, UniProt P41250 55-739, limits assumed).
T3 sequence: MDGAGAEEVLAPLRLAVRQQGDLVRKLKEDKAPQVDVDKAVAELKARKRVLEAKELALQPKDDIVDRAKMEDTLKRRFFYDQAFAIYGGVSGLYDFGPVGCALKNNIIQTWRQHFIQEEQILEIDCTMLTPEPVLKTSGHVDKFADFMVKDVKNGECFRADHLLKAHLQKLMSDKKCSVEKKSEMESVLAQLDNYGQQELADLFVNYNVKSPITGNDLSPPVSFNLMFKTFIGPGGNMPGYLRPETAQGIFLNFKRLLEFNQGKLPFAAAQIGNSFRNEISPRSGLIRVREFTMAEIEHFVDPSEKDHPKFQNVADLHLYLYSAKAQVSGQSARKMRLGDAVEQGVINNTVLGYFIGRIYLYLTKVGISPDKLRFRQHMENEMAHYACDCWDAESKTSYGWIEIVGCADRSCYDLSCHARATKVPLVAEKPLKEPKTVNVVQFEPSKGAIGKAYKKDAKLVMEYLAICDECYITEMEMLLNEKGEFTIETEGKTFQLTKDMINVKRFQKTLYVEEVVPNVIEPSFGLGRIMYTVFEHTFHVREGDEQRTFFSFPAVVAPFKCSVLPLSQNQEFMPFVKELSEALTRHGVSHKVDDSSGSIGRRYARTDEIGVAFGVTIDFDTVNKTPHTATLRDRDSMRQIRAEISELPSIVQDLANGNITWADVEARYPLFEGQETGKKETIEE
As to the kind of experiment: co-immunoprecipitation, HEK293 cells.

For a further assay, the target named is T4, ubiquitin (UniProt P0CG48 1-76).
T4 construct: Bought protein
As to the kind of experiment: His-tag pull-down.

B1: ABD (V541-E685) of GlyRS (enzyme)
chain: VREGDEQRTFFSFPAVVAPFKCSVLPLSQNQEFMPFVKELSEALTRHGVSHKVDDSSGSIGRRYARTDEIGVAFGVTIDFDTVNKTPHTATLRDRDSMRQIRAEISELPSIVQDLANGNITWADVEARYPLFEGQETGKKETIEE
notes: Cloned, expressed and purified in a similar way as the full-length GlyRS; also called ABD GlyRS; ABD domain alone
As to B1, the Kd amounted to 144 nM with GST-APPBP1 and 187 nM in assay [1].

B2: APPBP1 in HEK293 cells (endogenous) (enzyme, UniProt Q13564 2-534, looked up)
chain: AQLGKLLKEQKYDRQLRLWGDHGQEALESAHVCLINATATGTEILKNLVLPGIGSFTIIDGNQVSGEDAGNNFFLQRSSIGKNRAEAAMEFLQELNSDVSGSFVEESPENLLDNDPSFFCRFTVVVATQLPESTSLRLADVLWNSQIPLLICRTYGLVGYMRIIIKEHPVIESHPDNALEDLRLDKPFPELREHFQSYDLDHMEKKDHSHTPWIVIIAKYLAQWYSETNGRIPKTYKEKEDFRDLIRQGILKNENGAPEDEENFEEAIKNVNTALNTTQIPSSIEDIFNDDRCINITKQTPSFWILARALKEFVAKEGQGNLPVRGTIPDMIADSGKYIKLQNVYREKAKKDAAAVGNHVAKLLQSIGQAPESISEKELKLLCSNSAFLRVVRCRSLAEEYGLDTINKDEIISSMDNPDNEIVLYLMLRAVDRFHKQQGRYPGVSNYQVEEDIGKLKSCLTGFLQEYGLSVMVKDDYVHEFCRYGAAEPHTIAAFLGGAAAQEVIKIITKQFVIFNNTYIYSGMSQTSATFQL
With B2, in assay [2], the binding result was “binds”.

B3: full-length human GlyRS (enzyme)
chain: MDGAGAEEVLAPLRLAVRQQGDLVRKLKEDKAPQVDVDKAVAELKARKRVLEAKELALQPKDDIVDRAKMEDTLKRRFFYDQAFAIYGGVSGLYDFGPVGCALKNNIIQTWRQHFIQEEQILEIDCTMLTPEPVLKTSGHVDKFADFMVKDVKNGECFRADHLLKAHLQKLMSDKKCSVEKKSEMESVLAQLDNYGQQELADLFVNYNVKSPITGNDLSPPVSFNLMFKTFIGPGGNMPGYLRPETAQGIFLNFKRLLEFNQGKLPFAAAQIGNSFRNEISPRSGLIRVREFTMAEIEHFVDPSEKDHPKFQNVADLHLYLYSAKAQVSGQSARKMRLGDAVEQGVINNTVLGYFIGRIYLYLTKVGISPDKLRFRQHMENEMAHYACDCWDAESKTSYGWIEIVGCADRSCYDLSCHARATKVPLVAEKPLKEPKTVNVVQFEPSKGAIGKAYKKDAKLVMEYLAICDECYITEMEMLLNEKGEFTIETEGKTFQLTKDMINVKRFQKTLYVEEVVPNVIEPSFGLGRIMYTVFEHTFHVREGDEQRTFFSFPAVVAPFKCSVLPLSQNQEFMPFVKELSEALTRHGVSHKVDDSSGSIGRRYARTDEIGVAFGVTIDFDTVNKTPHTATLRDRDSMRQIRAEISELPSIVQDLANGNITWADVEARYPLFEGQETGKKETIEE
notes: A tag-free preparation is described (N-terminal His-SUMO tag removed by Ulp1); the His-tagged preparation may have been used in some of those; also called full-length GlyRS; tag-free full-length GlyRS
In assay [1], B3 yielded a dissociation constant (Kd) of 159 nM.

B4: His-tagged full-length human GlyRS (glycyl-tRNA synthetase) (enzyme)
chain: MDGAGAEEVLAPLRLAVRQQGDLVRKLKEDKAPQVDVDKAVAELKARKRVLEAKELALQPKDDIVDRAKMEDTLKRRFFYDQAFAIYGGVSGLYDFGPVGCALKNNIIQTWRQHFIQEEQILEIDCTMLTPEPVLKTSGHVDKFADFMVKDVKNGECFRADHLLKAHLQKLMSDKKCSVEKKSEMESVLAQLDNYGQQELADLFVNYNVKSPITGNDLSPPVSFNLMFKTFIGPGGNMPGYLRPETAQGIFLNFKRLLEFNQGKLPFAAAQIGNSFRNEISPRSGLIRVREFTMAEIEHFVDPSEKDHPKFQNVADLHLYLYSAKAQVSGQSARKMRLGDAVEQGVINNTVLGYFIGRIYLYLTKVGISPDKLRFRQHMENEMAHYACDCWDAESKTSYGWIEIVGCADRSCYDLSCHARATKVPLVAEKPLKEPKTVNVVQFEPSKGAIGKAYKKDAKLVMEYLAICDECYITEMEMLLNEKGEFTIETEGKTFQLTKDMINVKRFQKTLYVEEVVPNVIEPSFGLGRIMYTVFEHTFHVREGDEQRTFFSFPAVVAPFKCSVLPLSQNQEFMPFVKELSEALTRHGVSHKVDDSSGSIGRRYARTDEIGVAFGVTIDFDTVNKTPHTATLRDRDSMRQIRAEISELPSIVQDLANGNITWADVEARYPLFEGQETGKKETIEE
notes: also called His-tagged GlyRS; purified human GlyRS protein; not shown: His tag
As for B4, the binding result in the assay with ubiquitin is given as “no binding”.

The term Kd denotes the constant that tells how readily two partners part at equilibrium. A lower Kd goes with higher affinity.

For the origin of these results see patent US20190381086A1 (Scripps Research, published 2019).
